# From patent publication US20100204091
# T1: SIVA2
# T1 chain: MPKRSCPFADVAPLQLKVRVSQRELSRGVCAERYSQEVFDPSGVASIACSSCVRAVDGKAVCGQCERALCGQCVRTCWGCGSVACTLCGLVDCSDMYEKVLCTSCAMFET
# B1: NF-κB-inducing kinase, NIK, (MAP3K14) (protein)
# chain: MAVMEMACPGAPGSAVGQQKELPKAKEKTPPLGKKQSSVYKLEAVEKSPVFCGKWEILNDVITKGTAKEGSEAGPAAISIIAQAECENSQEFSPTFSERIFIAGSKQYSQSESLDQIPNNVAHATEGKMARVCWKGKRRSKARKKRKKKSSKSLAHAGVALAKPLPRTPEQESCTIPVQEDESPLGAPYVRNTPQFTKPLKEPGLGQLCFKQLGEGLRPALPRSELHKLISPLQCLNHVWKLHHPQDGGPLPLPTHPFPYSRLPHPFPFHPLQPWKPHPLESFLGKLACVDSQKPLPDPHLSKLACVDSPKPLPGPHLEPSCLSRGAHEKFSVEEYLVHALQGSVSSGQAHSLTSLAKTWAARGSRSREPSPKTEDNEGVLLTEKLKPVDYEYREEVHWATHQLRLGRGSFGEVHRMEDKQTGFQCAVKKVRLEVFRAEELMACAGLTSPRIVPLYGAVREGPWVNIFMELLEGGSLGQLVKEQGCLPEDRALYYLGQALEGLEYLHSRRILHGDVKADNVLLSSDGSHAALCDFGHAVCLQPDGLGKSLLTGDYIPGTETHMAPEVVLGRSCDAKVDVWSSCCMMLHMLNGCHPWTQFFRGPLCLKIASEPPPVREIPPSCAPLTAQAIQEGLRKEPIHRVSAAELGGKVNRALQQVGGLKSPWRGEYKEPRHPPPNQANYHQTLHAQPRELSPRAPGPRPAEETTGRAPKLQPPLPPEPPEPNKSPPLTLSKEESGMWEPLPLSSLEPAPARNPSSPERKATVPEQELQQLEIELFLNSLSQPFSLEEQEQILSCLSIDSLSLSDDSEKNPSKASQSSRDTLSSGVHSWSSQAEARSSSWNMVLARGRPTDTPSYFNGVKVQIQSLNGEHLHIREFHRVKVGDIATGISSQIPAAAFSLVTKDGQPVRYDMEVPDSGIDLQCTLAPDGSFAWSWRVKHGQLENRP
# Target: T1, SIVA2
protein,measurement,value
B1,in vitro kinase assay (phosphorylation of SIVA2),NIK readily phosphorylated SIVA2
